According to the supplement of paper PMC9170038:

Tested on: K4 kissing-loop RNA reporter
Experiment: apparent KD of K4 kissing-loop reporter; higher = weaker reporter binding
Conditions: Eterna round: R107
Method: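 RNA-MaP round R107: designed RNA switches with theophylline, tryptophan, arginine or FMN aptamers are transcribed on-chip within common flanks. They are titrated with a labelled K4 kissing-loop RNA reporter in RNA-MaP buffer (100 mM Tris pH 7.5, 80 mM KCl, 4 mM MgCl2), without ligand or with the indicated ligand. Median apparent KD per design.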

[1] = input ligand: theophylline 20 uM
[2] = input ligand: tryptophan 2.4 mM
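Further: bound reporter read as fluorescence of individual clusters on recovered sequencing chips by microscopy, with normalized cluster intensities fitted with a binding model.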

Sequence	apparent KD of K4 kissing-loop reporter (input ligand: FMN 200 uM) [nM]	apparent KD of K4 kissing-loop reporter (input ligand: arginine 13.2 mM) [nM]	apparent KD of K4 kissing-loop reporter (input ligand: none) [nM]	apparent KD of K4 kissing-loop reporter [1] [nM]	apparent KD of K4 kissing-loop reporter [2] [nM]
UUAGAGAUCUCAGGAUAUGAGUGAUGUUGGUAUCAAGAUCUGAGAUAGAAUUCUAUCUCAGAUCAAUCAGAAGGGAGAUCUCAUU [AK2.1 Exc FMN B]	376	424	534	583	550
CUAGGCAACACAGGAUAUGUCCGAGUGAUGUUCGAGCCUUUCCAUUGACGAAAUUAAUGGUGGGUGACAGAAGGGUGAGUGCUGA [Xezaqu]	354	577	620	585	432
CACGCCUGUUGUCUGGUAGACAGAUCAGAUACCAGACAUAGUGAUGUCCCUUGGCAGCUGAACAUCCAGUGAUGUUGGAUGCGUU [Theo A SS t11]	447	333	446	394	371
UGACAUUGCUCAGAUACCAGACAUGAGCAUCAGCCAUGUGCCAAAUACGUACAAAUAAAUGUCCCUUGGCAGCUGAGCAAUGUCU [TheoBX 12]	66.7	30.7	37.5	80	44.4
UUUGUAUCGGGAAGGAGCGUGAAUGAUAAUGAAUAUAGUGAUGUUAUAUAUAAGAACGAAUCACAGGUAGGUCGCCCGGAUGAGU [SSArgB.N]	548	387	486	548	460
GUAUCGCUAGGAGGAUAUUCCGUUUUUCAUAGCAAUGGCUAUGCGGAGUGAUGUUCCGAUUUACCGGAAGAAGGCCUAGUGAUAC [FMN B 24]	108	139	128	148	114
ACAGGAUCGAAAGAUCCUGAGCAGUCUAACCGAGGACCGGUACGGCCGCCACUCGGAGUGAUGUUCCGAGGACUGCAAAAUAAAA [#SwitchBubble 2 #CoaxialStacking]	330	305	298	329	795
AAUAAGGUCGCCGAUACCAGCGCAGGCAGAGCAAAGCUCUGCCAGGUAGUGAUGUUACCGCGCCCUUGGCAGCGGUGGCACGACC [Omei KL Theo B SS C v2]	523	357	516	459	579
AACUGUCAAGGACAACAUUACUGAGGUGAUACCAGCAUCGAAAGAUGCCCUUGGCAGCACUGACUUGCAGUGAUGUUGCAAGUAA [BrourdMod 8 - Jieux - Exclusion - Theophylline A]	208	162	199	215	189
GCAGUGAUGUUGCACGAGUAGGGUAGAGUACGAGGACCGGUACGGCCGCCACUCGUACGGAACUCGCUAAUUUAUGGAAUGGUGA [I]	465	590	752	761	497
AUGACAGAAUCGGCCGCCACUCAUUGUCCUGUGGACAUUCUAGGAUUAGUGAUGUUUUUCCCAUCGAGGACCGGGAUACAGAUUG [theeternabot_sameState_KL_Trp_B_6]	675	267	467	398	519
UCACUACACUGAAGGAGCGUGAGGAGACUAGUGAUGUUGGUCAGAUUCUAUGAUCGUAACUCACAGGUAGGUCGCAGUGUAGUGU [Arg B SS t7]	514	341	518	378	476
AGAACUGUCUUGGAUACCAGUGAUGUUGGUAUCGAUGUGUGAGUGCAAAGCGUCCCACAUCGCCCUUGGCAGCUAAGACAGUUCA [Omei KL Theo B Exc A v5]	331	292	341	375	292
AAGCAGUCACUCGAAUCCAUCGAAGAUGGACGAGGACCGGUACGGCCGCCACUCGGAGUGAUGUUCCGAAGACUGCAAAAUAAAA	306	246	342	345	482
UGACAUUGCUCAGAUACCAGACCUGAGGAUCACCCAGGUGCCAAAACGUACUAAAUAAAGGUCCCUUGGCAGCUGAGCAAUGUCU [TheoBX 13]	63.6	38.9	27.3	101	65.4
AUUUUUAACUGAGGAUAUCGAAUUUAUGUAGUGAUGUUACUUUAAAUUAAAAUUUUAAUUUCUUAACGAGAAGGCAGAAUAAUUA [JR_SSFMNB_Sub025]	111	194	109	204	85.4
GGUAGCAUGGCGGCCGCCACUUACUUCAAUAGGAGUGAUGUUCCUAUUACUAGUAGUGAAAUAAUAAGGACCGGGCCAUGCUACC	103	87.9	95.2	82.8	96.8
CGAGUGAUGUUCGUUUUUUACUCUGUUUGACAGGAUAUGCGGAAACGCAGAAGGGUCACCUUUGAGUUAGACGGAGUUAUUUUUU [Ex FMN A 21]	409	287	322	309	290
AAUAUAGUGAUGUUAUAUAAGAAGGAGUUACGAGGACCGGUACGGCCGCCACUCGAAACGAGUGAGGGUUUGGGAGAUUGGGCCC [SSTryptA.J]	493	310	451	322	384
GGUGACAGCCAGGAGUGAUGUAUAGAAUAGCGAGGACCGGUACGGCCGCCACUCGUGAAGAGAAGGGAGUGAUGUUCCGUAAUGG [Kazoo C]	627	185	170	386	140
CGCAGUGAUGUUGCUAUUAUUCUUGAUUAACGAGGACCGGUACGGCCGCCACUCGAUUUCUAUCUAAUUUAGUGUUAUGUUGAUU [JR_ExcTryptoA_Sub007]	351	423	397	447	256
GUGAAGGAGCUGCAGUGAUGUUGCAGAGACUAGGAUAUCAGGAAACUGAGAAGGAGUCAACUCCUUCACCUAGACACUGCAGAAA [[F]''-[K1]-[K2]-[F1]-[F2]-[F2]'-[F1]'-[K]'_Design1]	110	108	128	170	143

Sequence	apparent KD of K4 kissing-loop reporter (input ligand: FMN 200 uM) [nM]	apparent KD of K4 kissing-loop reporter (input ligand: arginine 13.2 mM) [nM]	apparent KD of K4 kissing-loop reporter (input ligand: none) [nM]	apparent KD of K4 kissing-loop reporter [1] [nM]	apparent KD of K4 kissing-loop reporter [2] [nM]
AAAAUUGCGGUCGAAUUAACUUCUUGCAUACGAGGACCGGUACGGCCGCCACUCGAGUCAAGUGAUGUUUGAUAAUCUAUUAUUA [JR_ExcTryptoA_Sub011]	190	258	279	301	160
ACAGGAAUCUUUGAUACCAGAACCCGUCUACCUCCAUCCUUGGAGCAUAGUGAUGUUGUGUUCCCUUGGCAGCAAUAGGGCACAU [theeternabot_exclusion_KL_Theo_B_34]	711	498	632	597	644
GGUCCGGGCUCGGCCGCCACUCCCUCCUGCCGUAAGGUGGGAUACCGAGUGAUGUUCGGUUGGAGGAGGACCGGGAGCCCGGACC [#2 Exclusion - Tryptophan B Attempt #15 (HarryS)]	165	113	122	105	107
AGGUUUUGAUUAGGAUAUGCACUGACGACGAGAAUAUAGUGAUGUUAUAUAAUAGGAAUUAGUAGAGUAGAAGGGAUUGAGGUUU [SSFMNB.W]	261	168	277	342	190
CAACCGUAACACGAUACCAGCCUAGAAGCCAGUGAUGUUGGCCUUUUUUCGGAAAUGAAAGGCCCUUGGCAGCGUGGAUGAACUG [Dibibiquus]	468	304	380	462	338
GUACCGCGUGCGGCCGCCACUACAUCAAUUACCUAAGCCUAGUGAUGUUGGGUUUUUGCUACAGGUAGGACCGGGCAGAUGUAUG [theeternabot_sameState_KL_Trp_B_38]	292	225	307	263	270
AAGCAGUCACGCGAAGCCAUCGAAGAUGGUCGAGGACCGGUACGGCCGCCACUCGGAGUGAUGUUCCGAAGACUGCAAAAUAAAA	326	270	333	314	341
GGGUGGCAGGCGGCCGCCACUCUGAGCACCCACUGAGUGAUGUUCGUGGCGUAAGCCUGUUCGUAGAGGACCGGGUUUGUUGUUC [Exclusion Tryptophan B GF 15]	413	162	300	281	230
GCCAGUGAUGUUGGCGAACCGACGCAUGCAGAGGAUAUUCGAUCUUGAAGAAGGCUGCAGCGUCAUCAUACGCAGUGAUGUUGCG [Same State FMN A GF 27]	172	156	182	161	139
GCCAGAGCGCGAAGGAGCGCCGUGACAGGUUGCUGCCGUGGGCAGUGAUGUUGCUCAGUCCGGCAGGUAGGUCGCGUGCUCUGGC	422	434	548	433	372
GGAUAGGACAGAGGAUAUCUCUGAGGCAAGAAAACUUGUCUCUAAGGAGAUGACUCAGUGAUGUUGAGAGAAGGCUGUCCUAUCG [FmnBX 12 - #SwitchBubble #StaticStem]	230	144	155	140	157
CCUAUCUCAUACGAUACCAGUGAUUAACCAGUGAUGUUGGAAUAACCAAGGAAUAUUUAUCACCCUUGGCAGCGUAUGGGAUAGG [Ex Theophylline B K4 28]	99.8	54.4	83.3	115	69.4
CUUCGUAAAGGCCCAGUGAUGUUGGGCACUCGAGGACCGGUACGGCCGCCACUCGCUCCCUAAGUCGCGCGCGUGGGCCACCGCC [Xeteoredre]	111	110	99.4	104	113
UGUUAUGGGUGAGGAUAUGCUGACGAUGCGGGUGCGAGUGAUGUUGGUGUGGCUGGUGUCGUUUGUGCAGAAGGCACGCUCGUGG [BDazzled]	879	522	934	846	811
CGUUUAUAGCAGGAUACCAGUGCGGAUAAGGUGCGUUAAUAGUAGAGUGAUGUUCUAAAGUACCCUUGGCAGCUUAGAGUGAGUG [#21 K4 Theophylline B Exclusion]	202	144	145	273	108
UUCAGUGAUGUUGAACACUGUUGUAUAAACUAGGAUAUGCUGAUAAGCAGAAGGAGUGAUGUUCCGUUCAACAUCAGAAUUAAAU [#08 K4 FMN A Exclusion]	662	415	488	496	269
AAACAUCACUACUUCUUCGUCCUAGAAGACUAGGAUAUCAGGAAACUGAGAAGGAGUCUCUGCAGUGAUGUUGCAGCUAGGACGA [[K]'-[F2]'-[F1]'-[F1]-[F2]-[K1]-[K2]-[F]''_Design2]	191	219	194	249	280
AGAAGAUAUCAAGAUACCAGCUCCCGGCCCAAAACCCAGAUACACGAGUGAUGUUCGUUCAGCCCUUGGCAGCUUGCCUAGUUCU [theeternabot_sameState_KL_Theo_B_6]	94.4	149	125	163	89.4
UGUACCGAGUCAGGAUAUCAACGACUGACAAAGUCGGUCGAAUAUCCAGUGAUGUUGGAAAAUAACUGAGAAGGGACUUGGUACU [FmnBS 13 #SwitchBubble #StaticStem]	194	629	1080	710	903
AGUGGACGUGUCCGGAGUGAUGUUCAGGAUACCAGACACGAAAGUGUCCCUUGGCAGCCGGAGUGAUGUUCCGGCGUUCACUAAA [Omei KL Theo A Exc B v4]	459	248	360	419	321
GCCGUACGCAUGGAUACCAGUCUUUCACGACUGGGCAUGGAGUGAUGUUUCGUGAUGCUAGACCCUUGGCAGCCAUGCGUACGGC	201	163	175	184	175
